Patent publication US7166568B1, “Compositions and methods to inhibit formation of the C5b-9 complex of complement” (Oklahoma Medical Research Foundation, priority 1998, dated 2007)
Non-standard residues stand in square brackets, D forms with d. No end group written: not given here. allyl‑C = allyl-modified terminal Cys; allyl‑K = allyl-modified terminal Lys

Target: T1, CD59 (Homo sapiens, UniProt P13987)
T1 construct: human erythrocyte membrane glycoprotein CD59 were purified; from tissue; host or cells: human erythrocyte membranes (CD59); synthetic peptide custom ordered from Quality Controlled Biochemicals
T1 sequence (P13987 26-102): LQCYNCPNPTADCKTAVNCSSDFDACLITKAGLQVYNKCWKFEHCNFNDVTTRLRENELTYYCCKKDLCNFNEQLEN
Experiment: CD59 binding to hu C9 peptide 359–384, microtiter plate assay with biotin-CD59
Conditions: microplate; corrected for nonspecific binding with 20-fold excess unlabeled CD59
Procedure: Biotin-CD59—CD59 was biotinylated by incubation (1 h, room temperature) with a 20-fold molar excess of NHS-LC-biotin in 10 mM MOPS, 0.1% Nonidet P-40, pH 9.0 followed by exhaustive dialysis against charcoal, as described by Chang, et al. J. Biol. Chem. 269, 26424–26430 (1994).
CD59 binding to hu C9 peptide 359–384—The specific binding of CD59 to hu C9-derived peptide 359–384 was measured by microtiter plate assay with biotin-CD59, according to modification of published methods of Chang, et al. (1994) and Husler, et al. (1995). Briefly, the BSA-peptide conjugate was adsorbed to 96 well polyvinyl microplates by overnight coating at 5 μg/ml in 0.1 M sodium bicarbonate, pH 8.5. After blocking with 1% (w/v) BSA, wells were washed and incubated (4 hrs., 37° C.) with between 0.5 and 1 μg/ml biotin-CD59. After washing, the bound biotin-CD59 was detected with Vectastain (Vector Labs, Burlingame, Calif.), developed by addition of p-nitrophenyl phosphate (2 mg/ml) and optical density recorded at 405 nm (VMaxMicroplate Reader, Molecular Devices, Inc.). In all experiments, correction was made for background adsorption of biotin-CD59 to BSA-coated wells (no peptide) and for nonspecific binding of biotin-CD59 to peptide, determined in the presence of a 20-fold excess of unlabeled CD59. […]

- specific binding of biotin-CD59 to the BSA-coupled peptide: specifically bound
Substance: [allyl-K]-CLGYHLDVSLAFSEISVGAEFNKDD-[allyl-C] ([allyl‑K]CLGYHLDVSLAFSEISVGAEFNKDD[allyl‑C]; not fully specified; printed as [allyl-K]-CLGYHLDVSLAFSEISVGAEFNKDD-[allyl-C]) [C9 peptide 359–384]
